Patent US20210169973A1

Molecular target: murine TMEM219 expressed on murine islets and the murine beta cell line beta-TC (mouse) (UniProt Q9D123)
Test: cell-based or functional assay

Sequence of UniProt Q9D123 (Q9D123 39-240): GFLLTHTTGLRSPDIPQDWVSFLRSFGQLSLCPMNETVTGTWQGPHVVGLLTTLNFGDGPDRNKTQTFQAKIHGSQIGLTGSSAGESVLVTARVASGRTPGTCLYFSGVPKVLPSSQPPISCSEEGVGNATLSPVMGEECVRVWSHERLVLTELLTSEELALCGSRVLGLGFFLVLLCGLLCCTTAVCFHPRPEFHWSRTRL

early apoptosis of murine islets by FACS (Annexin V+ 7AAD-), IGFBP3-treated vs. untreated: 87%
Substance: recombinant human IGFBP3 (Life Technologies, 10430H07H5) (from UniProt P17936 28-291) (ligand)
